T1: Atto488-labeled DKF-1 ULD^R42C (C. elegans, UniProt Q9XUJ7 1-94, R42C, Atto488 (maleimide-conjugated) on cysteine 42)
T1 construct: C. elegans DKF-1, residues 1-94 (ubiquitin-like domain) with the surface-exposed arginine 42 mutated to cysteine; Labeling efficiency estimated at about 80%; also called Atto488-ULD^R42C; source: E. coli BL21*, purified in the same way as the WT counterpart, labelled with maleimide-Atto488; not shown: GST, N-terminal, cleaved
T1 sequence (looked up): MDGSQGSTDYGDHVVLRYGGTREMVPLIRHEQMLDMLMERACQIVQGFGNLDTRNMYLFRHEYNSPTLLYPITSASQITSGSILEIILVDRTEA


Tests used:
[1] = molecular target: human PKD1 kinase domain (PKD1^CAT, residues 569–892) (human) (UniProt Q15139); assay: fluorescence polarisation; fluorescence anisotropy; 195 μM PKD1^CAT with 80 nM Atto488-labeled PKD1^CAT successively diluted with buffer containing 80 nM labeled protein; 50 mM Tris pH 7.5, 220 mM KCl, 1% glycerol, 1 mM TCEP; 20 °C; single binding model; dimer to monomers
[2] = molecular target: human PKD1 kinase domain (PKD1^CAT, residues 569–892) (human) (UniProt Q15139); assay: SEC-MALS; PKD1^CAT, first run, 625 μg injected
[3] = molecular target: the molecule itself; assay: SEC-MALS; Superdex 200 10/300; 20 mM Tris pH 7.5, 150 mM KCl, 1 mM TCEP; 50 μl of 2.5 mg/ml protein injected
[4] = molecular target: T1, Atto488-labeled DKF-1 ULD^R42C; assay: fluorescence polarisation; fluorescence anisotropy; ULD or ULD^F59E (222 or 150 μM stock) titrated into 35–70 nM Atto488-ULD^R42C; 20 mM Tris pH 7.5, 150 mM KCl, 1% glycerol, 1 mM TCEP; 20 °C; single-site binding model; dimer to monomers; details: both partners purified
[5] = molecular target: the molecule itself; assay: fluorescence polarisation; fluorescence anisotropy; unlabeled PKD1 ULD (800 μM stock) titrated into 40 nM Atto488-labeled PKD1 ULD; 20 mM Tris pH 7.5, 150 mM KCl, 1 mM TCEP, 1% glycerol; 20 °C; single binding model; dimer to monomers

Molecule	stoichiometry N [3]	also measured
human PKD1 kinase domain (PKD1^CAT, residues 569–892) (from UniProt Q15139 569-892) (domain or fragment)	–	Kd [1]: 50000 nM; stoichiometry N [2]: 2
DKF-1 ULD (DKF-1^1–94) (domain or fragment, C. elegans, UniProt Q9XUJ7 1-94, looked up, C. elegans PKD homolog DKF-1, residues 1-94 (ubiquitin-like domain); also called ULD^WT; source: E. coli BL21*, purified (GSH beads, TEV cleavage on beads, SEC); not shown: GST, N-terminal, cleaved) MDGSQGSTDYGDHVVLRYGGTREMVPLIRHEQMLDMLMERARQIVQGFGNLDTRNMYLFRHEYNSPTLLYPITSASQITSGSILEIILVDRTEA	2	Kd [4]: 650 ± 70 nM
DKF-1 ULD–C1a (DKF-1^1–151) (domain or fragment, C. elegans, UniProt Q9XUJ7 1-151, looked up, C. elegans PKD homolog DKF-1, residues 1-151 (ubiquitin-like domain and C1a domain); The final crystallographic model comprises residues 12-151; also called PKD N terminus; source: E. coli BL21*, purified (GSH beads, TEV cleavage on beads, SEC); not shown: GST, N-terminal, cleaved) MDGSQGSTDYGDHVVLRYGGTREMVPLIRHEQMLDMLMERARQIVQGFGNLDTRNMYLFRHEYNSPTLLYPITSASQITSGSILEIILVDRTEAAVIPHVVEPESYMRPTFCDFCGEMLTGLMRQGVKCKNCNGNFHKRCSNAARNNCGAP	2	–
human PKD1 ULD (PKD1^48–143) (domain or fragment, UniProt Q15139 48-143, looked up, human protein kinase D1 (PKD1), residues 48-143 (ubiquitin-like domain); In the anisotropy titration 40 nM of the same protein carried Atto488 (maleimide) on its surface-exposed cysteines (labeling efficiency 50%); Addgene 31527 is the plasmid carrying the PKD1 gene; also called ULD of human PKD1; source: E. coli BL21*, purified (GSH beads, TEV cleavage on beads, SEC); not shown: GST, N-terminal, …) GISFHLQIGLSREPVLLLQDSSGDYSLAHVREMACSIVDQKFPECGFYGMYDKILLFRHDPTSENILQLVKAASDIQEGDLIEVVLSASATFEDFQ	2	Kd [5]: 1700 ± 200 nM
human PKD3 ULD (PKD3^55–149) (domain or fragment, UniProt O94806 55-149, looked up, human protein kinase D3 (PKD3), residues 55-149 (ubiquitin-like domain); also called ULD of human PKD3; source: E. coli BL21*, purified (GSH beads, TEV cleavage on beads, SEC); not shown: GST, N-terminal, cleaved) GSVHTVSFLLQIGLTRESVTIEAQELSLSAVKDLVCSIVYQKFPECGFFGMYDKILLFRHDMNSENILQLITSADEIHEGDLVEVVLSALATVED	2	–
